The values that follow come from patent US20210353712A1, “METHODS OF DIAGNOSING AND TREATING VASCULAR ASSOCIATED MACULOPATHY AND SYMPTOMS THEREOF” (University of Utah Research Foundation, priority 2011, published 2021).

The data set has as its system DQ elastin. The experiment in a line: In vitro elastin degradation assay. Format: biochemical. The procedure:
Therefore, studies were performed to determine whether HTRA1 degrades elastin, a major component of Bruch's membrane. Recombinant HTRA1 was incubated with dye-labeled elastin at 37° C. for two hrs and the fluorescence of the released elastin peptides was monitored at 513 nm. […] In an additional positive control assay, HTRA1 elastase activity was measured by fluorescence using various concentrations of elastase enzyme starting with 0.04 ng/well of porcine pancreatic elastase and 100 ng/well of Protealmmun HtrA1. DQ Elastin substrate was 25 ug/ml.
Recombinant HtrA1 protein expressed and purified from Sf9 cells was purchased from Protealmmun (Cat. #30600103). The HtrA1 elastase activity was measured using a fluorescent EnzChekElastase Assay Kit from Invitrogen (Cat. #E12056) using the protocol provided, except substrate concentration was 12.50 ? g/mL. HtrA1 concentration was titrated from 200-12.5 ng/well in two-fold dilutions. Activity was measured in 30-minute increments for a total of 2 hours.
The explanation for the elastin degradation in both the Bruch's membrane and the choroid vessels in the HTRA1 mice is that the protease activity of overexpressed HTRA1, which is secreted from RPE, caused the degeneration. Since HTRA1 was not known to have elastase activity, an in vitro elastin degradation assay was performed using DQ elastin, a soluble elastin labeled with quenched BODIPY FL dye, as a substrate. Purified recombinant human HTRA1 degraded elastin with a specific activity of 4.4±0.8 u/mg (n=3). […] To eliminate the possibility that the depletion of the elastic layers of the choroidal vessels and Bruch's membrane was the result of downregulation of elastin expression, we analyzed the protein level of soluble elastin in the RPE/choroid of hHTRA1^+ and WT mice by western blot. […] This is similar to what has been observed in human donors with AMD and with aberrant choriocapillaris lobules.

On to “recombinant human HTRA1: purified recombinant human HTRA1 serine protease”, for which the “Degradation of dye-labeled elastin” value (37° C. for two hrs, fluorescence at 513 nm) is reported as “degraded dye-labeled elastin”. In addition, for the setting “DQ elastin substrate”, the “Elastase activity, times less than porcine pancreas elastase” value was about 30 times and the Elastase specific activity turned out to be 4.4±0.8 u/mg.

“porcine pancreas elastase: reference elastase enzyme [reference compound]” displayed an Elastase specific activity (DQ elastin substrate) of 135±5.5 u/mg.
